B1: TRIM15 (parent)
chain: QSSGKILLCPLCQEEEQAETPMAP

Variants of: B1
Test: protein stability index of a GFP-peptide fusion (GPS, HEK-293T) (PSI 1-6); higher = more stable
Conditions: c terminus: a fixed tail appended
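Also: lentivirally expressed fusions sorted by FACS into six bins by GFP to DsRed ratio, PSI derived from sequencing read proportions per bin multiplied by bin number.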

Variant	protein stability index
S3D	3.07
S3E	3.79
S3F	3
S3G	3.34
S3H	2.99
S3I	3.31
S3K	3.21
S3L	3.3
S3M	3.24
S3N	3.62
S3P	3.23
S3Q	3.63
S3R	3.73
S3T	3.58
S3V	3.57
S3W	2.16
S3Y	2.82
G4A	3.07
G4C	4.14
G4D	4.24
G4E	3.72
G4F	2.49
G4H	2.96
G4I	3.34

Variant	protein stability index
G4K	4.13
G4L	2.93
G4M	3.3
G4N	2.76
G4P	3.24
G4Q	3.29
G4R	3.72
G4S	2.86
G4T	3.66
G4V	2.94
G4W	2.21
G4Y	3.4
K5A	3.27
K5C	3.54
K5D	3.72
K5E	4.56
K5F	2.1
K5G	3.77
K5H	3.17
K5I	2.17
K5L	2.86
K5M	2.41
K5N	3.46
K5P	3.65

Variant	protein stability index
K5Q	3.98
K5R	3.22
K5S	3.44
K5T	3.06
K5V	2.85
K5W	2.45
K5Y	2.36
I6A	4.26
I6C	3.94
I6D	4.77
I6E	3.62
I6F	3.76
I6G	3.53
I6H	3.15
I6K	4.23
I6L	3.79
I6M	3.72
I6N	4.13
I6P	4.11
I6Q	3.37
I6R	3.41
I6S	3.39
I6T	3.89
I6Y	4.04

Variant	protein stability index
L7A	3.65
L7C	3.77
L7D	4.35
L7F	3.47
L7G	3.9
L7H	3.62
L7I	3.4
L7K	4.51
L7M	3.51
L7N	4.21
L7P	4.42
L7Q	3.94
L7S	3.39
L7T	3.31
L7V	3.48
L7W	3.29
L7Y	3.15
L8A	4.32
L8C	3.46
L8D	4.91
L8E	5.11
L8G	4.08
L8H	3.96
L8K	3.83

Variant	protein stability index
L8M	3.79
L8N	4.45
L8P	4.34
L8Q	4.23
L8R	3.34
L8S	3.99
L8T	3.48
L8W	2.93
L8Y	3.28
C9A	5.01
C9F	4.38
C9H	5.15
C9I	3.84
C9K	5.6
C9L	4
C9M	4.5
C9N	5.59
C9P	5.54
C9Q	3.61
C9R	5.71
C9S	5.41
C9T	5.22
C9W	4.24
C9Y	4.36

Variant	protein stability index
P10A	3.35
P10C	3.77
P10E	4.06
P10F	2.13
P10G	4.31
P10H	3.42
P10I	1.99
P10M	2.75
P10N	4.4
P10Q	3.77
P10S	3.56
P10V	1.82
P10Y	2.71
L11C	3.28
L11D	4.98
L11E	4.72
L11F	3.42
L11G	4.63
L11H	3.68
L11I	3.94
L11K	4.54
L11M	3.78
L11N	5.01
L11P	5.27

Variant	protein stability index
L11Q	4.24
L11R	4.3
L11S	4.7
L11T	4.81
L11V	4.09
L11W	3.52
L11Y	3.01
C12A	4.22
C12D	4.87
C12E	5.46
C12F	4.81
C12H	4.66
C12I	4.68
C12K	4.93
C12L	4.18
C12M	4.86
C12N	4.99
C12P	5.04
C12Q	5.09
C12S	5.23
C12T	5.43
C12V	4.62
C12W	3.75

— the supplement of paper PMC10567573
